This is an account of results in patent US20110086806A1 (published 2011).

The target in assay [1] is T1, recombinant human IL-23R/Fc chimera (R&D Systems) (human, UniProt Q5VWK5 24-355).
T1 construct: Bought; also called rhIL23RFc
T1 sequence (looked up): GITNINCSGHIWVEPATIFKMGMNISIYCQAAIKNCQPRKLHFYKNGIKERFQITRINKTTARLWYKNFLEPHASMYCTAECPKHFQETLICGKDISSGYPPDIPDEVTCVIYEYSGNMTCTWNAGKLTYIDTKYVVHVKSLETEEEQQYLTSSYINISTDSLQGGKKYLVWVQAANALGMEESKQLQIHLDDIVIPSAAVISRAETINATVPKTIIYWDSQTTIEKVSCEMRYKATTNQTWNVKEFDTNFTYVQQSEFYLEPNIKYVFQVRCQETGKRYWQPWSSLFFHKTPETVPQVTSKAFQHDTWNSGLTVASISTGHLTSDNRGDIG
Briefly: SPR. Here is the method:
A Biacore 3000 biosensor (GE Healthcare) was used to evaluate the interaction of human IL-23R and receptor binders. Immobilization of an anti-human IgG Fc antibody (GE Healthcare) to the CM5 chip (GE Healthcare) was performed using standard amine coupling chemistry, and this modified surface was used to capture a recombinant human IL-23R/Fc fusion protein (R&D Systems). A low-density receptor surface, less than 200 RU, was used for all of the analyses. ATRIMER™ polypeptide complex dilutions (1-500 nM) were injected over the IL-23R surface at 30 μl/min and kinetic constants were derived from the sensorgram data using the Biaevaluation software (version 3.1, GE Healthcare). Data collection was 3 minutes for the association and 5 minutes for dissociation. The anti-human IgG surface was regenerated with a 30s pulse of 3M magnesium chloride. All sensorgrams were double-referenced against an activated and blocked flow-cell as well as buffer injections.

In assay [2] the target is T1, recombinant human IL-23R/Fc chimera …. Nature of the assay: competition ELISA vs IL-23. Here is the method: Assays were performed generally as follows. Individual wells in Immulon HB2 plates were incubated overnight at 4° C. with 100 μL PBS containing 100 ng of an anti-human IgG Fc (R&D MAB 110 clone 97924). Plates were washed five times with PBS/0.05% Tween 20, and wells were incubated for 1.5 h at RT with 100 μL each of PBS containing 50 ng of recombinant human IL-23R/Fc. […] Competitor was included at a final concentration of 1 μg/mL. After incubation, plates were washed as described and wells were incubated for 40 min at RT with 100 μL each of PBS containing a 1:5000 dilution of streptavidin-HRP conjugate (Pierce catalog no. 21130). After washing, wells were incubated with 100 μL each of TMB (BioFX Lab catalog no. TMBH-1000-0) for up to 30 min at RT. Reactions were stopped with an equal volume of 0.2 M sulfuric acid.
A number of ATRIMER™ polypeptide complexes were tested in competition ELISA more extensively to determine IC50 values.
(In general: An ELISA detects its analyte on a solid surface through an enzyme-linked reagent.)

For assay [3] the target is unchanged. Nature of the assay: competition ELISA vs IL-23. The source holds these as a separate data set.

B1: 056-41.B5C ATRIMER complex (designed binder)
chain: EPPTQKPKKIVNAKKDVVNTKMFEELKSRLDTLAQEVALLKEQQALQTVCLKGTKVHMKCFLAFTQTKTFHEASEDCISRGGTLSTPQTGSENDALYEYLRQSVGNEAEIWLGLNGSALTNTWVDMTGARIAYKNWETEITAQPDGGFGYFGENCAVLSGAANGKWFDKRCRDQLPYICQFGIV
modifications: non-covalent homotrimer of the one chain given
notes: not shown: Also the single Ser the vector leaves after the ompA signal
For the molecule B1, in assay [1], the Ka amounted to 9.78e+08 M⁻¹, the Kd is 1.02 nM, the koff was found to be 0.000314 s⁻¹ and the kon came out at 307000 M⁻¹ s⁻¹. Moreover, in assay [2], the IC50 is 1.65 nM.

B2: 105-20-1B3 ATRIMER complex (designed binder)
chain: EPPTQKPKKIVNAKKDVVNTKMFEELKSRLDTLAQEVALLKEQQALQTVCLKGTKVHMKCFLAFTQTKTFHEASEDCISRGGTLSTPQTGSENDALYEYLRQSVGNEAEIWLGLNGSALTNTWVDMTGARIAYKNWETEITAQPDGGFGYFGENCAVLSGAANGKWFDKRCRDQLPYICQFGIV
Turning to B2, the “Ratio IC50 to 056-53.H4E IC50” value in assay [3] was 1.2. Also, in assay [1], the Ka stood at 1.31e+09 M⁻¹, the Kd was 0.764 nM, the koff is 0.00031 s⁻¹ and the kon came out at 405000 M⁻¹ s⁻¹.

B3: 001-87.A9E ATRIMER complex (designed binder)
chain: EPPTQKPKKIVNAKKDVVNTKMFEELKSRLDTLAQEVALLKEQQALQTVCLKGTKVHMKCFLAFTQTKTFHEASEDCISRGGTLSTPQTGSENDALYEYLRQSVGNEAEIWLGLNGSALTNTWVDMTGARIAYKNWETEITAQPDGGLGYWGENCAVLSGAANGKWFDKRCRDQLPYICQFGIV
modifications: Homotrimer of this chain (ATRIMER complex).
notes: not shown: A possible extra N-terminal Ser from the ompA junction is left out
Turning to B3, in assay [1], the Ka came out at 5.21e+08 M⁻¹, the Kd worked out at 1.92 nM, the koff came to 0.00033 s⁻¹ and the kon was found to be 172000 M⁻¹ s⁻¹. Besides, the IC50 in assay [2] came out at 2.6 nM.

B4: 105-08-2F6 ATRIMER complex (designed binder)
chain: EPPTQKPKKIVNAKKDVVNTKMFEELKSRLDTLAQEVALLKEQQALQTVCLKGTKVHMKCFLAFTQTKTFHEASEDCISRGGTLSTPQTGSENDALYEYLRQSVGNEAEIWLGLNGSAYTNTWVDMTGARIAYKNWETEITAQPDGGFGYFGENCAVLSGAANGKWFDKRCRDQLPYICQFGIV
Consider B4, for which the “Ratio IC50 to 056-53.H4E IC50” value in assay [3] worked out at 2.4. In assay [1], the Ka was determined as 1.53e+09 M⁻¹, the Kd came to 0.653 nM, the dissociation rate constant (koff) was 0.000359 s⁻¹ and the on-rate (kon) is 550000 M⁻¹ s⁻¹.

B5: 105-20-2G12 ATRIMER complex (designed binder)
chain: EPPTQKPKKIVNAKKDVVNTKMFEELKSRLDTLAQEVALLKEQQALQTVCLKGTKVHMKCFLAFTQTKTFHEASEDCISRGGTLSTPQTGSENDALYEYLRQSVGNEAEIWLGLNGSPRTNTWVDMTGARIAYKNWETEITAQPDGGFGYFGENCAVLSGAANGKWFDKRCRDQLPYICQFGIV
Turning to B5, in assay [3], the “Ratio IC50 to 056-53.H4E IC50” value worked out at 1. In addition, in assay [1], the Ka stood at 1.52e+09 M⁻¹, the Kd turned out to be 0.658 nM, the koff was 0.000262 s⁻¹ and the kon stood at 398000 M⁻¹ s⁻¹.

B6: 001-69.4G8 ATRIMER complex (designed binder)
chain: EPPTQKPKKIVNAKKDVVNTKMFEELKSRLDTLAQEVALLKEQQALQTVCLKGTKVHMKCFLAFTQTKTFHEASEDCISRGGTLSTPQTGSENDALYEYLRQSVGNEAEIWLGLNGSRRSGVWVDMTGARIAYKNWETEITAQPDGGFGVFGENCAVLSGAANGKWFDKRCRDQLPYICQFGIV
notes: not shown: C-terminal tag: His/Myc (pANA4) or HA-StrepII (pANA10)
As to B6, in assay [1], the Ka is 1.35e+08 M⁻¹, the Kd was determined as 7.42 nM, the koff was 0.000805 s⁻¹ and the on-rate (kon) was found to be 109000 M⁻¹ s⁻¹. Further, in assay [2], the half-maximal inhibitory concentration (IC50) was determined as 1.4 nM.

B7: 105-20-1H1 ATRIMER complex (designed binder)
chain: EPPTQKPKKIVNAKKDVVNTKMFEELKSRLDTLAQEVALLKEQQALQTVCLKGTKVHMKCFLAFTQTKTFHEASEDCISRGGTLSTPQTGSENDALYEYLRQSVGNEAEIWLGLNGSPLTNTWVDMTGARIAYKNWETEITAQPDGGWGYFGENCAVLSGAANGKWFDKRCRDQLPYICQFGIV
As to B7, in assay [3], the “Ratio IC50 to 056-53.H4E IC50” value was found to be 1.8. Further, in assay [1], the Ka came out at 1.17e+09 M⁻¹, the Kd came out at 0.857 nM, the koff is 0.00032 s⁻¹ and the association rate constant (kon) was determined as 374000 M⁻¹ s⁻¹.

B8: 105-20-2A3 ATRIMER complex (designed binder)
chain: EPPTQKPKKIVNAKKDVVNTKMFEELKSRLDTLAQEVALLKEQQALQTVCLKGTKVHMKCFLAFTQTKTFHEASEDCISRGGTLSTPQTGSENDALYEYLRQSVGNEAEIWLGLNGSPITNTWVDMTGARIAYKNWETEITAQPDGGFGYFGENCAVLSGAANGKWFDKRCRDQLPYICQFGIV
modifications: Homotrimer of three identical chains (ATRIMER complex); one chain is given.
notes: as for B6
As for B8, the “Ratio IC50 to 056-53.H4E IC50” value in assay [3] was found to be 1.2. Besides, in assay [1], the Ka was 1.32e+09 M⁻¹, the Kd was determined as 0.759 nM, the koff amounted to 0.000312 s⁻¹ and the kon turned out to be 412000 M⁻¹ s⁻¹.

B9: 105-08-2G10 ATRIMER complex (designed binder)
chain: EPPTQKPKKIVNAKKDVVNTKMFEELKSRLDTLAQEVALLKEQQALQTVCLKGTKVHMKCFLAFTQTKTFHEASEDCISRGGTLSTPQTGSENDALYEYLRQSVGNEAEIWLGLNGSPLTDTWVDMTGARIAYKNWETEITAQPDGGFGYFGENCAVLSGAANGKWFDKRCRDQLPYICQFGIV
With B9, the “Ratio IC50 to 056-53.H4E IC50” value in assay [3] was found to be 1.8. Moreover, in assay [1], the Ka amounted to 7.58e+08 M⁻¹, the Kd worked out at 1.32 nM, the koff was 0.000397 s⁻¹ and the kon was 302000 M⁻¹ s⁻¹.

B10: 105-20-1H7 ATRIMER complex (designed binder)
chain: EPPTQKPKKIVNAKKDVVNTKMFEELKSRLDTLAQEVALLKEQQALQTVCLKGTKVHMKCFLAFTQTKTFHEASEDCISRGGTLSTPQTGSENDALYEYLRQSVGNEAEIWLGLNGSAGTNTWVDMTGARIAYKNWETEITAQPDGGFGYFGENCAVLSGAANGKWFDKRCRDQLPYICQFGIV
For the molecule B10, the “Ratio IC50 to 056-53.H4E IC50” value in assay [3] worked out at 2.1. For the same molecule, in assay [1], the Ka is 1.34e+09 M⁻¹, the Kd came out at 0.744 nM, the off-rate (koff) was 0.000372 s⁻¹ and the kon worked out at 500000 M⁻¹ s⁻¹.

B11: 105-20-2F12 ATRIMER complex (designed binder)
chain: EPPTQKPKKIVNAKKDVVNTKMFEELKSRLDTLAQEVALLKEQQALQTVCLKGTKVHMKCFLAFTQTKTFHEASEDCISRGGTLSTPQTGSENDALYEYLRQSVGNEAEIWLGLNGSKLTDTWVDMTGARIAYKNWETEITAQPDGGFGYFGENCAVLSGAANGKWFDKRCRDQLPYICQFGIV
modifications: ATRIMER complex: homotrimer of three copies of this chain, joined by the tetranectin coiled coil
notes: not shown: C-terminal tag: Myc/His (pANA4) or HA-StrepII (pANA10)
B11: the “Ratio IC50 to 056-53.H4E IC50” value in assay [3] was found to be 2.8. Moreover, in assay [1], the Ka turned out to be 5.41e+08 M⁻¹, the Kd was 1.85 nM, the koff stood at 0.000471 s⁻¹ and the kon stood at 254000 M⁻¹ s⁻¹.

B12: 105-08-2G7 ATRIMER complex (designed binder)
chain: EPPTQKPKKIVNAKKDVVNTKMFEELKSRLDTLAQEVALLKEQQALQTVCLKGTKVHMKCFLAFTQTKTFHEASEDCISRGGTLSTPQTGSENDALYEYLRQSVGNEAEIWLGLNGSPKTGTWVDMTGARIAYKNWETEITAQPDGGFGYFGENCAVLSGAANGKWFDKRCRDQLPYICQFGIV
For B12, the “Ratio IC50 to 056-53.H4E IC50” value in assay [3] was 2.5. For the same molecule, in assay [1], the Ka was 6.99e+08 M⁻¹, the Kd came out at 1.43 nM, the koff was 0.000358 s⁻¹ and the association rate constant (kon) worked out at 251000 M⁻¹ s⁻¹.

B13: 101-80-5H3 ATRIMER complex (designed binder)
chain: EPPTQKPKKIVNAKKDVVNTKMFEELKSRLDTLAQEVALLKEQQALQTVCLKGTKVHMKCFLAFTQTKTFHEASEDCISRGGTLSTPQTGSENDALYEYLRQSVGNEAEIWLGLNGSALTNTWVDMTGARIAYKNWEPPAPYHPMAAGVFGENCAVLSGAANGKWFDKRCRDQLPYICQFGIV
B13: in assay [3], the “Ratio IC50 to 056-53.H4E IC50” value worked out at 11.3. Moreover, in assay [1], the Ka is 1.55e+08 M⁻¹, the Kd is 6.46 nM, the off-rate constant (koff) came out at 0.000327 s⁻¹ and the association rate constant (kon) was determined as 50500 M⁻¹ s⁻¹.

In general, Kd refers to the constant that tells how readily two partners part at equilibrium. As usually defined, the koff is the rate constant with which the complex falls apart. A word on the kon: it is the second-order rate constant of association. As a reminder, the IC50 is the concentration needed to halve the response being measured.
